In patent publication US8133978 (GlaxoSmithKline, dated 2012):

Experiments:
[1] = target: T1, Human interleukin-18 (recombinant human IL-18) (human, UniProt Q14116 37-193); test: SPR, Biacore T100, Protein A capture, 37 C, mean n = 6
T1 construct: also called hIL-18
T1 sequence: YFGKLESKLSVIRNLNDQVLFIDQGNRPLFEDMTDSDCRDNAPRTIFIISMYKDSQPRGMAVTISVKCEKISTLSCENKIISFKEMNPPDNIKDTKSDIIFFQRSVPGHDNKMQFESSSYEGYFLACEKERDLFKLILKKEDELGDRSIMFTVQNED
Description: (§1) The methodology was basically the same as for the method used in Example 4a above; Protein A was immobilised on a CM5 chip at densities of between 2000-6000 RU's by primary amine coupling. Runs were carried out in HBS-EP (Biacore™). The anti-IL-18 antibodies were captured to densities of between 100-500 RUs, human IL-18 was passed over this captured surface at concentrations between 16-0.0625 nM, with 0 nM concentration (i.e., a buffer only injection of captured antibody) used for double referencing. Regeneration after each injection of IL-18 was by mild acidic elution using two injections of 10 mM glycine, pH1.5. […] The binding curves obtained were analysed using the analysis software inherent to the T100 machine using the 1:1 model of binding. Runs were carried out at the temperatures indicated.
These experiments were carried out as described above. Table 6 details the kinetic parameters obtained. […] H1L2 has a better on-rate (ka) than H1L1.

[2] = target: T1, Human interleukin-18 (recombinant human …); test: SPR, Biacore 3000, antibody captured on Protein A, 37 C
Description: (§2) Biacore™ kinetic analysis of the humanised 2C10 antibodies was carried out on a Biacore™ 3000 instrument using Protein A capture of the antibodies in HBS-EP buffer (Biacore™). Briefly, Protein A was immobilised on a CM5 chip by primary amine coupling, using manufacturers recommended protocol, to densities around 2000-4000 resonance units (RU's). Humanised antibody was then passed over the Protein A surface and captured to levels of around 200-500 RU's, after a period of stabilisation, IL-18 (human or Rhesus) was passed over the captured antibody surface at defined concentrations and binding sensorgrams were obtained. […] All curves were double referenced against a buffer injection instead of IL-18 and the data was fitted to the 1:1 binding model using the global fit parameters in BiaEval 4.1. Off-rate ranking experiments were set up using the same Protein A capture method, however, only a single concentration of IL-18 was used (10 nM). Whilst the data was fitted using the same binding model as the kinetic analysis, since only one concentration of analyte was used on the off-rate is reported, this value is useful for ranking rather than giving an exact kinetic measurement and was used as a way of selecting which antibodies would be further investigated.
(§3) Based upon these observations selected antibodies were investigated in greater detail for binding to human and Rhesus IL-18 at 37° C. The data shown in Table 4b for human IL-18 is the mean (and standard deviation) of six separate determinations.

Rhesus IL-18 [3] = target: T2, Rhesus IL-18 (rhesus (rhesus/cynomolgus)); test: as above
T2 construct: also called Rhesus/Cynomolgus IL-18; rhesus/cynomolgus IL-18
Description: as §2, §3

[4] = target: T1, Human interleukin-18 (recombinant human …); test: SPR, Biacore T100, antibody captured on Protein A, 15 C
[5] = target: T1, Human interleukin-18 (recombinant human …); test: SPR, Biacore T100, antibody captured on Protein A, 20 C
Description: as §1
(§4) This experiment was carried out using the above method at various temperatures. […] Table 5 details the kinetic values used to create these figures.

[6] = target: T1, Human interleukin-18 (recombinant human …); test: SPR, Biacore T100, antibody captured on Protein A, 32 C
Description: as §1, §4

[7] = target: T1, Human interleukin-18 (recombinant human …); test: SPR, Biacore T100, antibody captured on Protein A, 37 C
Description: as §1, §4

Rhesus IL-18 [8] = target: T2, Rhesus IL-18; test: Rhesus IL18 binding ELISA, antibody titrated, OD 490 nm
[9] = target: T1, Human interleukin-18 (recombinant human …); test: ELISA, antibody on plate, human IL-18 captured, detected by 16D10; 37 C, in serum
Description: (§5) ELISA was carried out with the three Humanised H1 variants; H1L1, H1L2 and H1L3 to assess binding to human IL-18 at room temperature and at 37° C. in both human serum and in block solution (PBS 0.05% TWEEN with 1% BSA (w/v)). The Humanised antibody variants were immobilised on Nunc Maxisorp 96-well plates at 2.5 µg/ml. Capture of 5 ng/ml of recombinant human IL-18 was carried out either at room temperature or 37° C. in human serum or block solution. Anti-IL-18 mouse monoclonal antibody 16D10 was added. The bound mouse antibody was detected using anti-mouse kappa peroxidase conjugate (Serotec MCA 1291P). Representative EC50 values generated from the study data are illustrated in Table 9.

[10] = target: T1, Human interleukin-18 (recombinant human …); test: ELISA, IL-18 bp-Fc coated at 0.5 ug/ml, human IL-18 added at 100 ng/ml, antibody titrated, detection anti-human kappa HRP, Abs 490 nm
[11] = target: T1, Human interleukin-18 (recombinant human …); test: ELISA, antibody on plate, human IL-18 captured, detected by 16D10; room temperature, in serum; room temperature incubation, in presence of serum
Description: as §5

Kd [1]: 0.046 nM
Kd [2]: 0.197 nM
Kd (Rhesus IL-18 [3]): 0.139 nM
Kd [4]: 0.01 nM
Kd [5]: 0.0089 nM
Kd [6]: 0.0189 nM
Kd [7]: 0.0223 nM
EC50 (read off the curve) (Rhesus IL-18 [8]): ~0.03 µg/mL
EC50 [9]: 0.00979 µg/mL
EC50 (read off the curve) [10]: ~0.04 µg/mL
EC50 [11]: 0.00979 µg/mL
B1: H1L2 humanised anti-IL-18 antibody (antibody, human IgG1, kappa, V domains shown)
VH: QVQLVQSGAEVKKPGASVKVSCKVSGEISTGYYFHWVRQAPGKGLEWMGRIDPEDDSTKYAERFKDRVTMTEDTSTDTAYMELSSLRSEDTAVYYCTTWRIYRDSSGRPFYVMDAWGQGTLVTVSS
VL: DIQMTQSPSSVSASVGDRVTITCLASEDIYTYLTWYQQKPGKAPKLLIYGANKLQDGVPSRFSGSGSGTDYTLTISSLQPEDFATYYCLQGSKFPLTFGQGTKLEIKR
notes: Human IgG1 / kappa
